For experiment [1], the target named is T1, TSG101 UEV (human), Q99816.
T1 chain: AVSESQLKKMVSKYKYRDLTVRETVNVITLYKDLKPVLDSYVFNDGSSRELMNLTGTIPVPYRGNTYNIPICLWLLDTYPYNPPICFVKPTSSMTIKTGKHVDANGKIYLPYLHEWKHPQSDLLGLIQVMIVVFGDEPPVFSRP
In words: FP. The note with it: modification not given.

Another experiment addresses RANBP2 RanBD4 (human). In words: fluorescence polarisation; displacement of a FITC-labelled probe peptide (5 nM in the measurement) from the protein domain (1-2 fold over the probe's KD) by a dilution series of unlabelled peptide; room temperature; 50 mM sodium phosphate pH 7.4; KD calculated from the displacement curve; for KPNA4 ARM one probe for each pocket.
The target of a further experiment is T2, GGA1 VHS (human), Q9UJY5.
T2 chain: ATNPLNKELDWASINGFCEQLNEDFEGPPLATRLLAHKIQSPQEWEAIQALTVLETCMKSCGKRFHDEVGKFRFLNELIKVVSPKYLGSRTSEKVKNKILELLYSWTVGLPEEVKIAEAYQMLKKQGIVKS
Described as above.

The target in experiment [2] is SNX27 PDZ (human), Q96L92. In words: FP. The note with it: modification not given.
The target of another experiment is MAP1LC3A (human). Briefly: FP. The note with it: modification not given.

Usually IC50 stands for the concentration needed to halve the response being measured. Read a low IC50 as inhibition by little substance. For NGCSSPTAPLEPMSP [GJA1 E], the IC50 in experiment [1] is 232 µM. Broadly, the Kd is the free concentration of one partner at which half of the binding sites on the other are occupied at equilibrium, for simple one-to-one binding. With KYSDDTPLPEPSYKYN (modifications not checked) [DHX38_(260–275), phosphomimetic (E), Q92620 260-275], the Kd with RANBP2 RanBD4 (human) was 470 µM. As for HSGNVTPTAPPYLQES [TMEM55A pS], the IC50 in experiment [1] was 34 µM. Take DLLESPDVGLLKLAS (modifications not checked) [JUN_(59–73), phosphomimetic (E), P05412 59-73]: the dissociation constant (Kd) with GGA1 VHS (human), Q9UJY5 was 450 µM. For the molecule HSGNVEPTAPPYLQES [TMEM55A E], the IC50 in experiment [1] came out at 37 µM. For the molecule ETYYLSDEPLLGPPVG (modifications not checked) [GTSE1_(145–160), phosphomimetic (E), Q9NYZ3 145-160], the dissociation constant Kd in the experiment with GGA1 VHS (human), Q9UJY5 was 199 µM.

On to INLFEKEKEMKKSPTS (modifications not checked) [GTSE1_(145–160), wild‐type, Q9NYZ3 145-160], for which the Kd with GGA1 VHS (human), Q9UJY5 was 96 µM. In experiment [2], GMVSSTSFNGG [DAXX pS] displayed a half-inhibitory concentration (IC50) of 427 µM.

With GMVSETSFNGG [DAXX E], in experiment [2], the IC50 stood at 117 µM.

On to QNLSREWHDVQVSSAY [TPD52L2 E], for which the IC50 with MAP1LC3A (human) was determined as 223 µM. Take NGCSSPTAPLSPMSP [GJA1 pS]: the IC50 in experiment [1] amounted to 420 µM. In turn, QNLSRSWHDVQVSSAY [TPD52L2 pS] came in with a half-inhibitory concentration (IC50) with MAP1LC3A (human) of 60 µM.

(Values after article PMC10333884, “Large‐scale phosphomimetic screening identifies phospho‐modulated motif‐based protein interactions” (Molecular Systems Biology, 2023).)
